B1: LCA60 (antibody, V domains shown)
VH: EVQLLESGGGLVKPGGSLRLSCEASGLTFSNVWMSWVRQAPGKGLEWVGRIKRKSEGATTDYGAPVKGRFTLSRDDSKNTVYLQMNSLKIDDTAVYYCSTLTRGGDVWSSSYYFDYWGQGALVTVSS
VL: QSALTQPASVSGSPGQSITISCTGTSSDVGTYDLVSWYQQHPGKSPKLMIYADIKRPSGVSHRFSGSKSGNTASLTISGLQSADEADYYCCLYAGSSTSVIFGGGTKVT
B2: D12 (antibody, V domains shown)
VH: EVKLVESGGGLVKPGGSLKLSCAASGFTFSSYAMSWVRQTPEKRLEWVATISSGGTYTYYPDSVKGRFTISRDNAENTLYLQMSSLRSEDTAMYYCVRDGNSMDYWGQGTSVTVSS
VL: DIQMTQTTSSLSASLGDRVTIICRASQDINNYLNWYQQKPDGTVKLLIYYTSRLHSGVPSRFSGSGSGSDYSLTISNLEQEDIATYFCQQANTLPPTFGAGTKLELR

Target: MERS-CoV wild type receptor-binding domain (MERS-wtRBD), Twin Strep tagged (MERS-CoV)
Test: ELISA (FIG. 9)

Binder	binding result
B1	binds
B2	binds
